According to US20220226493A1:

B1: CK6-SET0207 (CK6 with Fc modifications D265C H435A) (antibody, V domains shown)
VH: QVQLVQSGAAVKKPGESLKISCKGSGYRFTSYWIGWVRQMPGKGLEWMGIIYPGDSDTRYSPSFQGQVTISAGKSISTAYLQWSSLKASDTAMYYCARHGRGYNGYEGAFDIWGQGTMVTVSS
VL: AIQLTQSPSSLSASVGDRVTITCRASQGISSALAWYQQKPGKAPKLLIYDASSLESGVPSRFSGSGSGTDFTLTISSLQPEDFATYYCQQFNSYPLTFGGGTKVEIK
B2: CK6-PBD (anti-CD117 antibody CK6 with Fc modification S239C conjugated to PBD) (antibody, DAR 1.7, V domains shown)
VH: B1 VH
VL: B1 VL
B3: CK6-D4 (anti-CD117 antibody CK6 with Fc modification S239C conjugated to calicheamicin) (antibody, DAR 1.72, V domains shown)
VH: B1 VH
VL: B1 VL
B4: CK6-PNU (anti-CD117 antibody CK6 with Fc modification S239C conjugated to PNU) (antibody, DAR 1.4, V domains shown)
VH: B1 VH
VL: B1 VL
B5: CK6-DM (anti-CD117 antibody CK6 with Fc modification S239C conjugated to duocarmycin) (antibody, DAR 1.65, V domains shown)
VH: B1 VH
VL: B1 VL

Target: CD117 on Kasumi-1 cells, P10721
Assay: cell-based or functional assay

Binder | % Efficacy (in vitro Kasumi cell killing assay, CellTiter-Glo) [%]
B1 | 0
B2 | 60.7
B3 | 0
B4 | 85.7
B5 | 0
